Source: PMC5603589 (2017)

Target: GST-AKT1 CA (85 kDa) (UniProt P31749 1-480)
Test: BLI

GST-AKT1 CA (85 kDa), sequence (P31749 whole entry): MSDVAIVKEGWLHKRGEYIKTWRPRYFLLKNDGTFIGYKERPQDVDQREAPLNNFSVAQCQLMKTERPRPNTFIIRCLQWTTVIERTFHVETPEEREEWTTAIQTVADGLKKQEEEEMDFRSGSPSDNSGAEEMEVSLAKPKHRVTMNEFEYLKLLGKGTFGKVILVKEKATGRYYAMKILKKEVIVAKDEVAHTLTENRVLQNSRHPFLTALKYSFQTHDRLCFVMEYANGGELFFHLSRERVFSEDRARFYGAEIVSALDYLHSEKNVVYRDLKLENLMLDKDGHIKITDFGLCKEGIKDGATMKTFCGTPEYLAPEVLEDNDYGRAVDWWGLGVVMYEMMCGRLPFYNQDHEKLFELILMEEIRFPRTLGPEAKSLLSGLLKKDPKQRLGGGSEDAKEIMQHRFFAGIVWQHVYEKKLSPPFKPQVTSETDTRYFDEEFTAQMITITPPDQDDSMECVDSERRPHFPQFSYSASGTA

- Kd: 0.0772 nM
B1: GST-PALLD third IgC domain (40 kDa) (domain or fragment)
chain: PFFEMKLKHYKIFEGMPVTFTCRVAGNPKPKIYWFKDGKQISPKSDHYTIQRDLDGTCSLHTTASTLDDDGNYTIMAANPQGRIS
modifications: labelled by biotin
